# Biological target: porcine trypsin (porcine) (UniProt P00761)
# Test: cell-based or functional assay
# UniProt P00761, sequence (P00761 9-231 limits assumed): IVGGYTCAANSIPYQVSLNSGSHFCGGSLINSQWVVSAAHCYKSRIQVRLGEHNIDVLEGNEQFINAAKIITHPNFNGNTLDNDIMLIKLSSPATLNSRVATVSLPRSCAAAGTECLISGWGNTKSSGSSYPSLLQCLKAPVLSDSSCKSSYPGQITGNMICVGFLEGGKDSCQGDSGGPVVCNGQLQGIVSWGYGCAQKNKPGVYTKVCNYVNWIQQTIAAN
row,KIU/mg Protein (specific activity) (KIU/mg protein),Substance
1,7150,r-Aprotinin-L (aprotinin variant with Met 52 replaced by leucine)
2,7220,r-Aprotinin-Q (aprotinin variant with Met 52 replaced by glutamine)
3,7160,r-Aprotinin-V (aprotinin variant with Met 52 replaced by valine)

# — patent US20060218667A1
